Measured values as given in article doi:10.1101/2024.11.03.621760 (bioRxiv, 2024).

What was measured:
[1] = target: prefusion MERS-CoV EMC/2012 S ectodomain trimer (MERS-CoV-2P S) (MERS-CoV EMC/2012)
[2] = target: prefusion MERS-CoV EMC/2012 S ectodomain trimer (MERS-CoV-2P S) (MERS-CoV EMC/2012); experiment: SPR

Binder	Table S6, nHALC3 919: neutralisation IC50, EMC/2012 S VSV pseudovirus, exp 1 [1]	Table S6, nHALC3 919: neutralisation IC50, EMC/2012 S VSV pseudovirus, exp 2 [1]	Kd [2]	koff [2]	kon [2]	Table S6, cHALC3 919: neutralisation IC50, EMC/2012 S VSV pseudovirus, exp 1 [1]	Table S6, cHALC3 919: neutralisation IC50, EMC/2012 S VSV pseudovirus, exp 2 [1]
nHALC3_919_cb3 (designed binder) MSGSPVKRFVREVLEEAEEAYEKGDRRQFEELLWLAEWAARDANDEELEEEIREFEKEVKGSGSEELLEELRELLERLQELLELIEQGKITPEQLREAIALLIEVLQILYEALRELAEQLQRLREELGGS	5.9 nM	1.7 nM	0.11 nM	6e-05 s⁻¹	560000 M⁻¹ s⁻¹	–	–
cHALC3_919_cb3 (designed binder) MSGSEELLEELRELLERLQELLELIEQGKITPEQLREAIALLIEVLQILYEALRELAEQLQRLREELGGSGSPVKRFVREVLEEAEEAYEKGDRRQFEELLWLAEWAARDANDEELEEEIREFEKEVKGS	–	–	–	–	–	15.3 nM	5 nM
